Results from the supplement of paper PMC10126150.
± gives the standard deviation of the averaged measurements.

Test system: ATP
Experiment: switch fluorescence ratio, 500 uM ATP over buffer (Cy3 cluster intensity, sum of 5 cycles each) (fold (ratio)); higher = stronger signal-on switching upon ATP binding; sequences stand for … in TCGTCGGCAGCGTCAGATGTGTATAAGAGACAGTTTTTTTTTTTTTTTTTTTTTTTTT…TC
Details: aptamer strand: ATP DNA aptamer (quencher-CACCTGGGGGAGTATTGCGGAGGAAGG + anchor), 100 nM annealed; ATP concentration: 500 uM
Summary of the method: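 The quencher-labelled ATP aptamer, at 100 nM, was annealed to Cy3-labelled switching-strand clusters on a modified Illumina MiSeq flow-cell. The clusters were imaged in selection buffer, then after 15 min with 500 uM ATP at 22 °C, and this buffer/ATP cycle ran five times with NaOH stripping and re-annealing between runs. Per-cluster fluorescence ratios, summed target-cycle over summed buffer-cycle Cy3 intensity, were averaged per switch-domain sequence. Clusters outside 100-1000 RFU were excluded.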
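Note: ATP exposure 15 min at 22 °C before imaging.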

Row | Sequence | switch fluorescence ratio
1 | GGGGAGGGCG | 0.967 ± 0.034
2 | GGGGAGGTAA | 0.973 ± 0.012
3 | GGGGAGTGAG | 0.986 ± 0.017
4 | GGGGAGTTAT | 1.01 ± 0.0024
5 | GGGGATAAAA | 1.01 ± 0.034
6 | GGGGATACGT | 1 ± 0.021
7 | GGGGATCCCC | 1.03 ± 0.019
8 | GGGGATGGCT | 0.992 ± 0.039
9 | GGGGATGGTG | 1 ± 0.035
10 | GGGGATGGTT | 0.974 ± 0.03
11 | GGGGATTAAG | 0.971 ± 0.033
12 | GGGGATTATA | 1.01 ± 0.015
13 | GGGGATTTGA | 0.995 ± 0.029
14 | GGGGATTTGG | 0.992 ± 0.018
15 | GGGGCAAAAA | 1.08 ± 0.12
16 | GGGGCAACGT | 0.983 ± 0.012
17 | GGGGCAATTT | 1.04 ± 0.052
18 | GGGGCACCTC | 1.04 ± 0.015
19 | GGGGCAGCCA | 1.03 ± 0.038
20 | GGGGCAGGCT | 0.886 ± 0.18
21 | GGGGCAGGTA | 1.04 ± 0.047
22 | GGGGCATGCA | 0.9897 ± 0.0081
23 | GGGGCATGGA | 0.95 ± 0.018
24 | GGGGCATGGT | 1.01 ± 0.018
25 | GGGGCCAAAA | 0.947 ± 0.11

Row | Sequence | switch fluorescence ratio
26 | GGGGCCAGAA | 1.012 ± 0.0029
27 | GGGGCCCCTC | 1.04 ± 0.092
28 | GGGGCCGAGA | 0.987 ± 0.012
29 | GGGGCCGTTG | 0.949 ± 0.012
30 | GGGGCGGGGT | 1.01 ± 0.018
31 | GGGGCGGGTA | 1 ± 0.078
32 | GGGGCGGTGG | 1.036 ± 0.0062
33 | GGGGCGGTTT | 1.01 ± 0.046
34 | GGGGCGTAGG | 1 ± 0.033
35 | GGGGCGTGTG | 1.01 ± 0.014
36 | GGGGCTATAA | 1.11 ± 0.067
37 | GGGGCTATCC | 1.01 ± 0.036
38 | GGGGCTCACG | 0.985 ± 0.029
39 | GGGGCTTATT | 0.975 ± 0.029
40 | GGGGCTTTTG | 0.98 ± 0.04
41 | GGGGGAAAAA | 0.998 ± 0.059
42 | GGGGGAAATA | 0.9815 ± 0.0055
43 | GGGGGAAATG | 0.994 ± 0.029
44 | GGGGGAAATT | 1.03 ± 0.015
45 | GGGGGAACCA | 0.9993 ± 0.0072
46 | GGGGGAATCA | 0.9748 ± 0.0039
47 | GGGGGACTAT | 1.03 ± 0.023
48 | GGGGGACTTT | 1.08 ± 0.08
49 | GGGGGAGAAT | 0.986 ± 0.025
50 | GGGGGAGAGC | 1.03 ± 0.043

Row | Sequence | switch fluorescence ratio
51 | GGGGGAGATA | 1 ± 0.025
52 | GGGGGAGATT | 0.977 ± 0.02
53 | GGGGGAGCGA | 0.98 ± 0.059
54 | GGGGGAGCTG | 0.978 ± 0.019
55 | GGGGGAGGAG | 0.996 ± 0.013
56 | GGGGGAGTTG | 0.982 ± 0.044
57 | GGGGGATAAG | 1 ± 0.028
58 | GGGGGATAGA | 1.03 ± 0.034
59 | GGGGGATCTC | 1.01 ± 0.021
60 | GGGGGCAAAA | 1.03 ± 0.025
61 | GGGGGCAAAT | 0.9935 ± 0.0068
62 | GGGGGCAACG | 1.03 ± 0.1
63 | GGGGGCAACT | 0.997 ± 0.017
64 | GGGGGCAGCA | 1.01 ± 0.04
65 | GGGGGCATTT | 1 ± 0.031
66 | GGGGGCCATA | 1.14 ± 0.18
67 | GGGGGCCCGA | 0.9925 ± 0.0076
68 | GGGGGCCGCT | 1.02 ± 0.036
69 | GGGGGCCGGT | 1.01 ± 0.058
70 | GGGGGCCGTT | 0.977 ± 0.058
71 | GGGGGCCTTA | 1.01 ± 0.047
72 | GGGGGCGCAT | 0.96 ± 0.066
73 | GGGGGCGCGA | 1.02 ± 0.035
74 | GGGGGCGGAG | 0.992 ± 0.024
75 | GGGGGCGGAT | 0.992 ± 0.024

Row | Sequence | switch fluorescence ratio
76 | GGGGGCGTTA | 1.02 ± 0.026
77 | GGGGGCTCTG | 0.999 ± 0.028
78 | GGGGGCTGTT | 1 ± 0.014
79 | GGGGGCTTTG | 0.978 ± 0.023
80 | GGGGGGACGT | 1.02 ± 0.035
81 | GGGGGGAGG | 1.1 ± 0.13
82 | GGGGGGAGGA | 1.01 ± 0.056
83 | GGGGGGATAC | 1.7 ± 0.61
84 | GGGGGGATCG | 0.9791 ± 0.008
85 | GGGGGGATCT | 1.004 ± 0.0098
86 | GGGGGGATGC | 1.07 ± 0.13
87 | GGGGGGATGT | 0.993 ± 0.027
88 | GGGGGGCACC | 0.994 ± 0.021
89 | GGGGGGCCGT | 0.957 ± 0.025
90 | GGGGGGCGCT | 0.992 ± 0.018
91 | GGGGGGCGGG | 1.03 ± 0.051
92 | GGGGGGCTGA | 0.982 ± 0.018
93 | GGGGGGGAAT | 1 ± 0.045
94 | GGGGGGGATC | 1.02 ± 0.045
95 | GGGGGGGCGT | 0.996 ± 0.032
96 | GGGGGGGG | 0.994 ± 0.043
97 | GGGGGGGGAC | 1.02 ± 0.071
98 | GGGGGGGGGG | 1.02 ± 0.068
99 | GGGGGGGTC | 0.979 ± 0.019
100 | GGGGGGGTCG | 0.983 ± 0.048

Row | Sequence | switch fluorescence ratio
101 | GGGGGGGTG | 1.04 ± 0.013
102 | GGGGGGGTGC | 1.02 ± 0.049
103 | GGGGGGTAAC | 1 ± 0.019
104 | GGGGGGTCGT | 1 ± 0.05
105 | GGGGGGTCTT | 1.01 ± 0.025
106 | GGGGGGTT | 0.9904 ± 0.005
107 | GGGGGGTTAC | 1.42 ± 1
108 | GGGGGGTTAG | 0.991 ± 0.029
109 | GGGGGGTTCC | 1.02 ± 0.044
110 | GGGGGTACTG | 0.965 ± 0.028
111 | GGGGGTAGAG | 0.988 ± 0.015
112 | GGGGGTAGGA | 1.02 ± 0.038
113 | GGGGGTAGGT | 0.985 ± 0.036
114 | GGGGGTATCG | 0.967 ± 0.021
115 | GGGGGTCACT | 0.993 ± 0.026
116 | GGGGGTCGAC | 0.996 ± 0.043
117 | GGGGGTCTTA | 0.9974 ± 0.0063
118 | GGGGGTGCTG | 0.993 ± 0.025
119 | GGGGGTGCTT | 1.03 ± 0.056
120 | GGGGGTGTCT | 0.99 ± 0.034
121 | GGGGGTTACC | 0.988 ± 0.02
122 | GGGGGTTCTT | 1.01 ± 0.049
123 | GGGGGTTGAA | 1 ± 0.029
124 | GGGGGTTTCG | 0.999 ± 0.036
125 | GGGGTAAATC | 1.01 ± 0.024

Row | Sequence | switch fluorescence ratio
126 | GGGGTAAGAG | 1.019 ± 0.0038
127 | GGGGTAAGTA | 0.986 ± 0.027
128 | GGGGTAAGTT | 0.989 ± 0.035
129 | GGGGTACAGG | 1.005 ± 0.0055
130 | GGGGTACGAG | 1.02 ± 0.033
131 | GGGGTAGGCG | 0.959 ± 0.051
132 | GGGGTAGTG | 1.03 ± 0.067
133 | GGGGTATCCA | 1.03 ± 0.03
134 | GGGGTATCTT | 1.04 ± 0.017
135 | GGGGTATGAG | 0.972 ± 0.029
136 | GGGGTATTGC | 1.004 ± 0.0076
137 | GGGGTATTTG | 0.99 ± 0.012
138 | GGGGTCAACG | 0.963 ± 0.035
139 | GGGGTCATTT | 0.979 ± 0.027
140 | GGGGTCCTGG | 0.943 ± 0.022
141 | GGGGTCGGGA | 0.999 ± 0.011
142 | GGGGTCGGGT | 0.99 ± 0.012
143 | GGGGTCGTGT | 0.992 ± 0.023
144 | GGGGTCGTTC | 0.99 ± 0.028
145 | GGGGTGAAAT | 1 ± 0.018
146 | GGGGTGAGCA | 0.976 ± 0.029
147 | GGGGTGAGTG | 1.02 ± 0.045
148 | GGGGTGCCAG | 0.963 ± 0.058
149 | GGGGTGCGTG | 0.984 ± 0.045
150 | GGGGTGCTG | 1.02 ± 0.036

Row | Sequence | switch fluorescence ratio
151 | GGGGTGCTTG | 0.988 ± 0.026
152 | GGGGTGGGTA | 0.998 ± 0.028
153 | GGGGTGGTCG | 0.986 ± 0.083
154 | GGGGTGTGGT | 0.998 ± 0.038
155 | GGGGTTAACT | 0.975 ± 0.022
156 | GGGGTTAGAA | 0.984 ± 0.0077
157 | GGGGTTCAAA | 0.997 ± 0.016
158 | GGGGTTCATT | 1.01 ± 0.04
159 | GGGGTTCC | 0.998 ± 0.0092
160 | GGGGTTCCTC | 0.9919 ± 0.0096
161 | GGGGTTGACG | 0.964 ± 0.059
162 | GGGGTTGGGT | 1.03 ± 0.026
163 | GGGGTTGGTA | 1.005 ± 0.006
164 | GGGGTTGTAG | 0.993 ± 0.047
165 | GGGGTTGTGA | 1.01 ± 0.022
166 | GGGGTTTACA | 0.989 ± 0.026
167 | GGGGTTTCTT | 0.987 ± 0.048
168 | GGGGTTTGAA | 0.984 ± 0.016
169 | GGGGTTTGTT | 0.992 ± 0.034
170 | GGGGTTTTTG | 0.995 ± 0.029
171 | GGGTAAAGGA | 0.985 ± 0.028
172 | GGGTAACGGT | 0.9802 ± 0.0045
173 | GGGTAAGGGA | 0.961 ± 0.013
174 | GGGTAAGGGG | 1.05 ± 0.098
175 | GGGTAAGTAT | 0.958 ± 0.04

Row | Sequence | switch fluorescence ratio
176 | GGGTAAGTGC | 1.047 ± 0.0017
177 | GGGTAATATG | 1.01 ± 0.049
178 | GGGTACCGAC | 1.08 ± 0.036
179 | GGGTACGCCG | 0.934 ± 0.025
180 | GGGTACGGAT | 1.04 ± 0.016
181 | GGGTACGGTA | 1.05 ± 0.029
182 | GGGTACGGTG | 1.07 ± 0.022
183 | GGGTACTTGG | 0.99 ± 0.026
184 | GGGTAGACTG | 0.955 ± 0.03
185 | GGGTAGCAGG | 1.04 ± 0.01
186 | GGGTAGCGCT | 0.969 ± 0.039
187 | GGGTAGGAGG | 0.982 ± 0.013
188 | GGGTATATGT | 1 ± 0.014
189 | GGGTATATTT | 1 ± 0.065
190 | GGGTATGAAG | 1.04 ± 0.049
191 | GGGTATGTAG | 0.986 ± 0.024
192 | GGGTATTGAG | 0.991 ± 0.012
193 | GGGTATTTTG | 0.997 ± 0.046
194 | GGGTCACTGG | 0.9765 ± 0.0056
195 | GGGTCAGGTG | 3.44 ± 0.48
196 | GGGTCAGTTT | 1.04 ± 0.054
197 | GGGTCCATGC | 1.01 ± 0.018
198 | GGGTCCATTC | 1.01 ± 0.02
199 | GGGTCGCGTG | 1.02 ± 0.033
200 | GGGTCTAAGG | 1.007 ± 0.0045
